Reference: patent US6746858B1, “Murd protein and gene of Streptococcus pyogenes” (Merck & Co. Inc., priority 1997, dated 2004)

Experiments:
E. coli MurD = E. coli MurD (Escherichia coli, UniProt P14900); details: 350 μM UDP-N-acetyl-muramyl-L-alanine
Method: The ATP-dependent MurD activity was assayed by monitoring the formation of product ADP using the pyruvate kinase and lactate dehydrogenase coupled enzyme assay. The reaction was monitored spectrophotometrically.
Typically, the assay contained 100 mM BIS-TRIS-propane, pH 8.0, 200 μM NADH, 1 mM ATP, 20 mM PEP, 5 mM MgCl2, 1 mM DTT, 350 μM UDP-N-acetyl-muramyl-L-alanine, 1 mM D-glutamate, 33 units/ml of pyruvate kinase and 1660 units/ml of lactate dehydrogenase in a final volume of 200 or 400 μL. The mixture was incubated at 25° C. for 5 min and the reaction initiated by the addition of 1-10 μg of MurD. ADP formation was monitored by the decrease in absorbance at 340 nm as a function of time using a Molecular Devices SpectramaxPlus microtiterplate spectrophotomer (for 200 μl assays) or a Hewlett-Packard HP8452A spectrophotometer equipped with a circulating water bath (for 400 μl assays). Rates were calculated from the linear portions of the progress curves using the extinction coefficient for NADH, e=6220 cm^−1 M^−1. One unit of MurD activity is equal to 1 μmol of ADP formed per min at 25° C.
Assays have been conducted using 120 and 350 μM UDP-N-acetyl-muramyl-L-alanine.

S. pyogenes MurD = test: ATP-dependent MurD activity, pyruvate kinase/lactate dehydrogenase coupled enzyme assay (ADP formation); assay type: biochemical, Streptococcus pyogenes; details: partially purified, UDP-N-acetylmuramyl-L-ala 350 μM, D-glutamate 1 mM, ATP 1 mM, 200 μl, 25° C.
Method: The cell pellet from 100 ml of induced culture prepared as described above was resuspended in 10 ml BT buffer (50 mM bis-tris-propane, pH 8.0, containing 100 mM potassium chloride and 1% glycerol) at 4° C. Cells were lysed either by freeze-thaw or by French Press. After centrifugation, the supernatant was mixed with 15 ml of freshly prepared Talon resin and incubated for 30 min at room temp. The resin was washed twice by centrifugation with 25 ml of BT buffer at room temperature. Finally, the resin loaded into a column and washed with 20 ml of BT, pH 7.0, containing 5 mM imidazole. Protein was eluted with 20 ml of BT buffer pH 8.0, containing 100 mM imidazole. Fractions (0.5 ml) were collected and analyzed by SDS-Gel electrophoresis. Fractions containing MurD were pooled, cleaved with thrombin (20 units/mg of His-tagged MurD) to remove the histidine tag. Finally the MurD protein was purified on Superdex 75 size exclusion column and eluted in 10 mM tris, pH 7.4, 150 mM NaCl and dialyzed in 100 mM MOPS, pH 7.5, using a Slide-A-Lyzer (Pierce, Rockford, Ill.). […] The protein may be purified further, if desired, using methods known in the art.
The reaction was monitored spectrophotometrically.

Chain of E. coli MurD (P14900 whole entry): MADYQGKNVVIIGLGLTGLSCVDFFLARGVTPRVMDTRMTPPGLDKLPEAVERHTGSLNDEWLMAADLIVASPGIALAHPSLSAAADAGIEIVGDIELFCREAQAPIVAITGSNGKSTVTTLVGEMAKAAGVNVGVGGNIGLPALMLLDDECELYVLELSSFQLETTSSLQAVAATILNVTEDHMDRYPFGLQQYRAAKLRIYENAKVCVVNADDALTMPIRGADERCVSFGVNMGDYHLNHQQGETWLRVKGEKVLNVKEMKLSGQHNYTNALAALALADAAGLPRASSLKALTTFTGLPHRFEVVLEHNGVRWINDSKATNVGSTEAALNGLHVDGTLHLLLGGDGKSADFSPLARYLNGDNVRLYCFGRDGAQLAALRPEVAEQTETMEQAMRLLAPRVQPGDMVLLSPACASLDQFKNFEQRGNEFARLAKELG

CC(=O)N[C@H]1C(OP(=O)(O)OP(=O)(O)OC[C@H]2O[C@@H](n3ccc(=O)[nH]c3=O)[C@H](O)[C@@H]2O)O[C@H](CO)[C@@H](O)[C@@H]1O[C@H](C)C(=O)N[C@H](C)C(=O)O (stereo partly drawn) [UDP-N-acetyl-muramyl-L-alanine]
substrate inhibition of the E. coli MurD (E. coli MurD): substrate inhibition

B1: S. pyogenes: recombinant Streptococcus pyogenes MurD protein (SEQ ID NO:2), His-tag removed, partially purified (protein)
chain: MKVISNFQNKKILILGLAKSGEAAAKLLTKLGALVTVNDSKPFDQNPAAQALLEEGIKVICGSHPVELLDEDFEYMVKNPGIPYDNPMVKRALAKEIPILTEVELAYFVSEAPIIGITGSNGKTTTTTMIADVLNAGGQSALLSGNIGYPASKVVQKAIAGDTLVMELSSFQLVGVNAFRPHIAVITNLMPTHLDYHGSFEDYVAAKWMIQAQMTESDYLILNANQEISATLAKTTQATVIPFSTQKVVDGAYLKDGILYFKEQAIIAATDLGVPGSHNIENALATIAVAKLSGIADDIIAQCLSHFGGVKHRLQRVGQIKDITFYNDSKSTNILATQKALSGFDNSRLILIAGGLDRGNEFDDLVPDLLGLKQMIILGESAERMKRAANKAEVSYLEARNVAEATELAFKLAQTGDTILLSPANASWDMYPNFEVRGDEFLATFDCLRGDA
modifications: His-tag removed; Streptococcus pyogenes MurD
units (S. pyogenes MurD; 0.00137 mg protein): 0.00017 µmol/min | Specific activity (S. pyogenes MurD): 0.13 µmol/min/mg
